Measurements from publication PMC8218686.

System: T1, YhjC-His6 (Shigella flexneri (serotype 5a M90T?)), ORF:c5ce7ff9
T1 sequence: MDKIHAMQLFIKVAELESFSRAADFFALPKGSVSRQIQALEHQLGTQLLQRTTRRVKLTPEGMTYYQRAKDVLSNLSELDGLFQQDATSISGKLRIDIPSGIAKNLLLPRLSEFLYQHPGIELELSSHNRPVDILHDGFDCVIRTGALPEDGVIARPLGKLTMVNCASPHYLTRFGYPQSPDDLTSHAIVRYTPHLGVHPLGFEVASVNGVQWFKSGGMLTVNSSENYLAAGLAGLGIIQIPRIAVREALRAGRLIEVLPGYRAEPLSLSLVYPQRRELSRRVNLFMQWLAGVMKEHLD
Assay: EMSA
Details: 20 mM Tris-HCl pH 7.5, 50 mM KCl, 1 mM EDTA, 1 mM DTT, 5% glycerol

For “GGTTATAGTCCCTTTCAGTGCAAATACTTAGCTTGTTGCACAGAGAAATAGAAGCTGCATAAGCTCTTTCTTCAAAAAATGTAAATAAAGTTAAATATAGGAAAAATTACTTAATCTATCTTAATAACGGAAAGATTTTGTATACAATCACTGTTACAGAAATTTCTTAGTTACTCTGTAAACACTAAATATAGTTTGGTATATTCTGTTGAATTTATGATGGATATGGGACATAAAAACAAAATAGATATAAAGGTTCGCTTGCATAAC (double strand) [virF promoter (PvirF)]”, the binding was “binds”.
